Measurements taken from patent publication US20140363465A1.

Target: SIINFEKL:H-2K^b complex on the surface of A3.1A7 macrophage cells (chicken)
Assay: cell-based or functional assay

IL-2 production by the RF33.70 T cell hybridoma (sandwich ELISA), SIINFEKL peptide concentration giving a detectable response: < 0.1 pg/mL
level of IL-2 production generated in response to free SIINFEKL peptide: < 275 pg/mL
Sequence: T cell receptor of the RF33.70 T-T hybridoma (CD8+, SIINFEKL-specific, H-2K^b-restricted) (TCR)
